According to PMC10171807 (Science Advances, 2023):
Where “and” joins values, the source holds several entries; their conditions need not be identical. Identical values can stand only once. Like-named read-outs stand apart in the source and are kept apart here.

Assays:
[1] = biological target: _(MPPΔ3)Skd3_WB (MPP-cleaved Skd3 without the C-terminal hydrophobic residues of the inhibitory sequence, with E455Q) (human); experiment: mass photometry
[2] = biological target: _(MPPΔ3)Skd3_WB (MPP-cleaved Skd3 without the C-terminal hydrophobic residues of the inhibitory sequence, with E455Q) (human); experiment: mass photometry; remark: listed apart in the source
FITC-casein [3] = biological target: FITC-casein (UniProt P02662); experiment: fluorescence polarisation
FITC-casein [4] = biological target: FITC-casein (UniProt P02662); experiment: fluorescence polarisation; remark: listed apart in the source
[5] = biological target: the molecule itself; experiment: electron microscopy, 2D class averages
mass photometry = biological target: the molecule itself; experiment: mass photometry

Chain of FITC-casein (P02662 16-214): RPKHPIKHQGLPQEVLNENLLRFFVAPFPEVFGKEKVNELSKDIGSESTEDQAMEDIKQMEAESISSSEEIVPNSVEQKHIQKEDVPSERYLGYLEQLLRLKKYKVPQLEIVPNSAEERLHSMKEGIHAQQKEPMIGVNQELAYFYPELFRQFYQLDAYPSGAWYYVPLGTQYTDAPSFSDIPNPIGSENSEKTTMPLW

| Kd (FITC-casein [3]) [µM] | Molecule | stoichiometry N (mass photometry) | also measured |
| --- | --- | --- | --- |
| 3.7 | _(PARL)Skd3_ARD (isolated ankyrin repeat domain of Skd3) (domain or fragment) VTTGSLGEPQWLRVATGGRPGTSPALFSGRGAATGGRQGGRFDTKCLAAATWGRLPGPEETLPGQDSWNGVPSRAGLGMCALAAALVVHCYSKSPSNKDAALLEAARANNMQEVSRLLSEGADVNAKHRLGWTALMVAAINRNNSVVQVLLAAGADPNLGDDFSSVYKTAKEQGIHSLEDGGQDGASRHITNQWTSALEFRRWLGLPAGVLITREDDFNNRLNNRASFKGCTALHYAVLADDYRTVKELLDGGANPLQRNEMGHTPLDYAREGEVMKLLRTSEAKYQEKQR | – | – |
| 3.4 | _(PARL)Skd3 (PARL-cleaved Skd3, human ClpB), wild type (enzyme, UniProt Q9H078 127-707, looked up) YSKSPSNKDAALLEAARANNMQEVSRLLSEGADVNAKHRLGWTALMVAAINRNNSVVQVLLAAGADPNLGDDFSSVYKTAKEQGIHSLEDGGQDGASRHITNQWTSALEFRRWLGLPAGVLITREDDFNNRLNNRASFKGCTALHYAVLADDYRTVKELLDGGANPLQRNEMGHTPLDYAREGEVMKLLRTSEAKYQEKQRKREAEERRRFPLEQRLKEHIIGQESAIATVGAAIRRKENGWYDEEHPLVFLFLGSSGIGKTELAKQTAKYMHKDAKKGFIRLDMSEFQERHEVAKFIGSPPGYVGHEEGGQLTKKLKQCPNAVVLFDEVDKAHPDVLTIMLQLFDEGRLTDGKGKTIDCKDAIFIMTSNVASDEIAQHALQLRQEALEMSRNRIAENLGDVQISDKITISKNFKENVIRPILKAHFRRDEFLGRINEIVYFLPFCHSELIQLVNKELNFWAKRAKQRHNITLLWDREVADVLVDGYNVHYGARSIKHEVERRVVNQLAAAYEQDLLPGGCTLRITVEDSDKQLLKSPELPSPQAEKRLPKLRLEIIDKDSKTRRLDIRAPLHPEKVCNTI | – | Kd (FITC-casein [4]): 0.86 µM; stoichiometry N [5]: 6 and 7 |

The next lines start with the molecule.

| Molecule | Kd (FITC-casein [3]) [µM] | stoichiometry N (mass photometry) | also measured |
| --- | --- | --- | --- |
| _(MPPΔ3)Skd3_WB (MPP-cleaved Skd3 without the C-terminal hydrophobic residues of the inhibitory sequence, with E455Q) (enzyme) | – | – | stoichiometry N [1]: 12; stoichiometry N [2]: 6 |
| _(PARL)Skd3_WB (PARL-cleaved Skd3 with the Walker B mutation E455Q) (enzyme, human, UniProt Q9H078 127-707, looked up) YSKSPSNKDAALLEAARANNMQEVSRLLSEGADVNAKHRLGWTALMVAAINRNNSVVQVLLAAGADPNLGDDFSSVYKTAKEQGIHSLEDGGQDGASRHITNQWTSALEFRRWLGLPAGVLITREDDFNNRLNNRASFKGCTALHYAVLADDYRTVKELLDGGANPLQRNEMGHTPLDYAREGEVMKLLRTSEAKYQEKQRKREAEERRRFPLEQRLKEHIIGQESAIATVGAAIRRKENGWYDEEHPLVFLFLGSSGIGKTELAKQTAKYMHKDAKKGFIRLDMSEFQERHEVAKFIGSPPGYVGHEEGGQLTKKLKQCPNAVVLFDQVDKAHPDVLTIMLQLFDEGRLTDGKGKTIDCKDAIFIMTSNVASDEIAQHALQLRQEALEMSRNRIAENLGDVQISDKITISKNFKENVIRPILKAHFRRDEFLGRINEIVYFLPFCHSELIQLVNKELNFWAKRAKQRHNITLLWDREVADVLVDGYNVHYGARSIKHEVERRVVNQLAAAYEQDLLPGGCTLRITVEDSDKQLLKSPELPSPQAEKRLPKLRLEIIDKDSKTRRLDIRAPLHPEKVCNTI | 3.6 | 6 | – |
| Skd3_L1,L2GH_WB (_(PARL)Skd3 with the L1GH and L2GH turn loop mutations and E455Q) (enzyme) YSKSPSNKDAALLEAARAGHMQEVSRLLSEGADVNAKHRLGWTALMVAAINGHNSVVQVLLAAGADPNLGDDFSSVYKTAKEQGIHSLEDGGQDGASRHITNQWTSALEFRRWLGLPAGVLITREDDFNNRLNNRASFKGCTALHYAVLADDYRTVKELLDGGANPLQRNEMGHTPLDYAREGEVMKLLRTSEAKYQEKQRKREAEERRRFPLEQRLKEHIIGQESAIATVGAAIRRKENGWYDEEHPLVFLFLGSSGIGKTELAKQTAKYMHKDAKKGFIRLDMSEFQERHEVAKFIGSPPGYVGHEEGGQLTKKLKQCPNAVVLFDQVDKAHPDVLTIMLQLFDEGRLTDGKGKTIDCKDAIFIMTSNVASDEIAQHALQLRQEALEMSRNRIAENLGDVQISDKITISKNFKENVIRPILKAHFRRDEFLGRINEIVYFLPFCHSELIQLVNKELNFWAKRAKQRHNITLLWDREVADVLVDGYNVHYGARSIKHEVERRVVNQLAAAYEQDLLPGGCTLRITVEDSDKQLLKSPELPSPQAEKRLPKLRLEIIDKDSKTRRLDIRAPLHPEKVCNTI | – | 6 and 12 | ratio of dodecamer relative to hexamer (mass photometry): 0.41 ± 0.12 |
